Data as given in publication PMC11256756.

Assays:
Assay in all cases: potentiometry
Details in all cases: 298 K, stated as 40 mM (SDS), 4 mM HClO4, no buffer
[1] = target: Lys14 (position 14, …)
[2] = target: Nterm1 (position 1, -----FFHHIF)
[3] = target: Nterm1 (position 1, -----FIHHIF)
[4] = 1:1 Zn(II) complex (Zn bound by three His imidazoles; N-terminus and Lys not coordinated)

Row | Protein | pKa ([1]; 1:1 Cu(II) complex, ATCUN 4N square-planar binding (N-terminal amine, two amides, His3 imidazole)) | pKa [1, 4] | pKa ([1]; metal-free peptide) | pKa [2, 4] | pKa ([2]; metal-free peptide) | pKa [3, 4] | pKa ([3]; metal-free peptide)
1 | FFHHIFRGIVHVGKTIHRLVTG [Piscidin 1 (Morone saxatilis x Morone chrysops (hybrid striped bass))] | 9.82 | 10.09 | 10.02 | 7.88 | 8.36 | – | –
2 | FIHHIFRGIVHAGRSIGRFLTG [Piscidin 3 (Morone saxatilis x Morone chrysops (hybrid striped bass))] | – | – | – | – | – | 7.29 | 8.26
3 | FFHHIFRGIVHVGKTIHKLVTG [Piscidin 2 (Morone saxatilis x Morone chrysops (hybrid striped bass))] | – | – | – | 8.04 | 8.82 | – | –
